Two molecules from PMC11879436, “VvARF19 represses VvLBD13-mediated cell wall degradation to delay softening of grape berries” can be followed below.

The series concerns the target T1, VvLBD13 (Vitis vinifera cv. Shine Muscat, UniProt D7SJL6 27-229).
T1 sequence: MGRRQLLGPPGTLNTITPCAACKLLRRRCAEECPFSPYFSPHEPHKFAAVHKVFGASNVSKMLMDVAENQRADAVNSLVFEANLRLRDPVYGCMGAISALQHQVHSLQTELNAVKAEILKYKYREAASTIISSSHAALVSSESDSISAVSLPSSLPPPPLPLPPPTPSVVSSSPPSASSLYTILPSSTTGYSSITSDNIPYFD
Kind of series: EMSA; with unlabeled cold probe competition; EMSA kit (Thermo 20148), 25 C, 30 min; buffer, salt and pH not stated. As to conditions: protein: recombinant; tags: His (pET-32a(+)); chain copies: 2; label: 5' biotin; blunt. A general note: A gel shift assay detects complexes by their altered migration in electrophoresis.

B1: VvXTH10 promoter probe (dsDNA)
DNA 1: TCGAGTGTTGCGGCTTTGAAAAATA
DNA 2: TATTTTTCAAAGCCGCAACACTCGA
On to B1, for which the binding result is “binds”.

B2: VvEXPLA1 promoter probe (dsDNA)
DNA 1: AATAGAGAAGCCCACACGTGAGCAA
DNA 2: TTGCTCACGTGTGGGCTTCTCTATT
For B2, the binding result was “binds”.
